Measured values from paper PMC4102245, “A molecular model for the role of SYCP3 in meiotic chromosome organisation” (eLife, 2014).

Molecular target: T1, SYCP3 dCt6 dBP1+2 (human, UniProt Q8IZU3 1-230, K52A;R53A;R54A;K55A;K56A;R57A;K88A;R89A;K90A;R91A)
T1 sequence: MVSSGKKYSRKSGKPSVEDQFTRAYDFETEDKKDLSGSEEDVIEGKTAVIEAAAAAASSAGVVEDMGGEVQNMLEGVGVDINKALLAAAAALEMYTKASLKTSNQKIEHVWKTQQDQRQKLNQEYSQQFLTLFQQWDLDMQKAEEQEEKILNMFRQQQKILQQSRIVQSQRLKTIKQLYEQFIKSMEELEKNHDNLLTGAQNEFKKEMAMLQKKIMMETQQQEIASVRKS
Assay: fluorescence anisotropy; up to 20 uM protein; 20 mM Tris pH 8.0, 150 mM KCl; FA at 25 C with 25 nM DNA (0-20 uM protein); EMSA 5 min at 4 C with 18.7 uM (per bp) DNA (0-40 uM protein), 0.5% agarose, 0.5x TBE
Settings: protein: recombinant; tags: N-terminal His6, TEV-cleaved; chain copies: 4; label: 5' FAM

B1: 60 bp FAM-dsDNA (dsDNA)
DNA 1: ATGGTGTGTGTAGGTTAATGTGAGGAGGAGAGGTGAAGAAGGAGGAGAGAAGAAGGAGGC
DNA 2: GCCTCCTTCTTCTCTCCTCCTTCTTCACCTCTCCTCCTCACATTAACCTACACACACCAT
**Q.** Does B1 bind?
**A.** no binding
